This data set relates to Escherichia coli TOP10. Description: shrunken log2 fold change of peptide-encoding DNA abundance (4.5 h post-induction vs induction); higher = less antimicrobial activity (less host growth inhibition). The conditions noted are these: time post-induction: 4.5 h; library: site-saturation at positions 5, 18, 19, 20.
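Also: peptides expressed intracellularly from a pBAD plasmid library in pooled LB shake-flask culture, induced with 0.3% L-arabinose, DNA abundance read by NGS, three biological replicates, DESeq2 with apeglm shrinkage.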

For the sequence RRIRGRPPRLPRPRPRPRKWPRP, the “shrunken log2 fold change” value worked out at 0.413.

As to RRIRIRPPRLPRPRPRPHFIPRP, the “shrunken log2 fold change” value was -0.564.

As to RRIRCRPPRLPRPRPRPWLKPRP, the “shrunken log2 fold change” value was -0.133.

As to RRIRGRPPRLPRPRPRPQHLPRP, the “shrunken log2 fold change” value is -0.054.

Consider RRIRQRPPRLPRPRPRPPNFPRP, for which the “shrunken log2 fold change” value is -0.0994.

As for RRIRQRPPRLPRPRPRPCNQPRP, the “shrunken log2 fold change” value is -0.213.

Turning to RRIRLRPPRLPRPRPRPSRRPRP, the “shrunken log2 fold change” value was -0.332.

RRIRPRPPRLPRPRPRPFSLPRP: the “shrunken log2 fold change” value is -0.365.

Turning to RRIRERPPRLPRPRPRPDCRPRP, the “shrunken log2 fold change” value was 0.0169.

In the case of RRIRARPPRLPRPRPRPGQHPRP, the “shrunken log2 fold change” value was -0.0452.

Consider RRIRKRPPRLPRPRPRPYNYPRP, for which the “shrunken log2 fold change” value was -0.898.

Take RRIRMRPPRLPRPRPRPRCMPRP: the “shrunken log2 fold change” value was found to be 0.511.

Turning to RRIRFRPPRLPRPRPRPDSPPRP, the “shrunken log2 fold change” value is -0.168.

RRIRYRPPRLPRPRPRPDMQPRP: the “shrunken log2 fold change” value was 0.0426.

As to RRIRWRPPRLPRPRPRPESDPRP, the “shrunken log2 fold change” value is 0.59.

Consider RRIRPRPPRLPRPRPRPPDFPRP, for which the “shrunken log2 fold change” value is -0.256.

Consider RRIRTRPPRLPRPRPRPHHFPRP, for which the “shrunken log2 fold change” value is -0.0421.

For the sequence RRIRKRPPRLPRPRPRPINIPRP, the “shrunken log2 fold change” value is -0.0728.

Turning to RRIRFRPPRLPRPRPRPPNMPRP, the “shrunken log2 fold change” value was -0.0513.

For the sequence RRIRTRPPRLPRPRPRPLTYPRP, the “shrunken log2 fold change” value came out at 0.959.

Regarding RRIRQRPPRLPRPRPRPSSDPRP, the “shrunken log2 fold change” value is -0.609.

For RRIRQRPPRLPRPRPRPGPFPRP, the “shrunken log2 fold change” value worked out at 0.0672.

For the sequence RRIRYRPPRLPRPRPRPINEPRP, the “shrunken log2 fold change” value was -0.181.

On to RRIRLRPPRLPRPRPRPEFDPRP, for which the “shrunken log2 fold change” value was found to be 0.31.

For the sequence RRIRLRPPRLPRPRPRPEGAPRP, the “shrunken log2 fold change” value came to 0.552.

In the case of RRIRPRPPRLPRPRPRPRQCPRP, the “shrunken log2 fold change” value is 0.126.

Turning to RRIRSRPPRLPRPRPRPYSMPRP, the “shrunken log2 fold change” value is -0.721.

Consider RRIRMRPPRLPRPRPRPHGLPRP, for which the “shrunken log2 fold change” value is 0.0212.

Regarding RRIRCRPPRLPRPRPRPYRHPRP, the “shrunken log2 fold change” value is -0.982.

For RRIRTRPPRLPRPRPRPGEYPRP, the “shrunken log2 fold change” value is -0.194.

For RRIRFRPPRLPRPRPRPPDVPRP, the “shrunken log2 fold change” value was 0.0274.

As for RRIRERPPRLPRPRPRPGLFPRP, the “shrunken log2 fold change” value is -0.0491.

With RRIRPRPPRLPRPRPRPMHLPRP, the “shrunken log2 fold change” value was -0.034.

On to RRIRLRPPRLPRPRPRPFMNPRP, for which the “shrunken log2 fold change” value was -0.217.

In the case of RRIRWRPPRLPRPRPRPRWMPRP, the “shrunken log2 fold change” value is 0.1.

Regarding RRIRRRPPRLPRPRPRPFMTPRP, the “shrunken log2 fold change” value came out at 0.0665.

For the sequence RRIRKRPPRLPRPRPRPARGPRP, the “shrunken log2 fold change” value amounted to 0.766.

RRIRWRPPRLPRPRPRPKCIPRP: the “shrunken log2 fold change” value is -0.217.

Consider RRIRNRPPRLPRPRPRPAAKPRP, for which the “shrunken log2 fold change” value is -0.0209.

As for RRIRFRPPRLPRPRPRPAHAPRP, the “shrunken log2 fold change” value was 0.0606.

On to RRIRTRPPRLPRPRPRPHFYPRP, for which the “shrunken log2 fold change” value is -0.224.

Consider RRIRNRPPRLPRPRPRPYDRPRP, for which the “shrunken log2 fold change” value was -0.12.

In the case of RRIRQRPPRLPRPRPRPPAWPRP, the “shrunken log2 fold change” value was 0.0654.

RRIRTRPPRLPRPRPRPVNYPRP: the “shrunken log2 fold change” value is 0.0177.

On to RRIRYRPPRLPRPRPRPLYWPRP, for which the “shrunken log2 fold change” value was -0.943.

In the case of RRIRKRPPRLPRPRPRPAWTPRP, the “shrunken log2 fold change” value was determined as 0.261.

With RRIRNRPPRLPRPRPRPVADPRP, the “shrunken log2 fold change” value was determined as 0.217.

Take RRIRRRPPRLPRPRPRPNAWPRP: the “shrunken log2 fold change” value is 0.597.

In the case of RRIRYRPPRLPRPRPRPEVFPRP, the “shrunken log2 fold change” value is -0.0536.

On to RRIRMRPPRLPRPRPRPMNPPRP, for which the “shrunken log2 fold change” value worked out at 0.12.

As for RRIRLRPPRLPRPRPRPVSDPRP, the “shrunken log2 fold change” value amounted to 0.128.

For RRIRRRPPRLPRPRPRPENHPRP, the “shrunken log2 fold change” value was 0.0228.

In the case of RRIRWRPPRLPRPRPRPQWDPRP, the “shrunken log2 fold change” value was -0.0065.

With RRIRCRPPRLPRPRPRPPVHPRP, the “shrunken log2 fold change” value is -0.112.

RRIRQRPPRLPRPRPRPEYEPRP: the “shrunken log2 fold change” value was -0.157.

On to RRIRCRPPRLPRPRPRPLFTPRP, for which the “shrunken log2 fold change” value was -0.42.

RRIRTRPPRLPRPRPRPWNHPRP: the “shrunken log2 fold change” value is 0.0317.

On to RRIRIRPPRLPRPRPRPFWEPRP, for which the “shrunken log2 fold change” value amounted to 0.366.

In the case of RRIRKRPPRLPRPRPRPKLCPRP, the “shrunken log2 fold change” value is 0.515.

Consider RRIRRRPPRLPRPRPRPWASPRP, for which the “shrunken log2 fold change” value is 0.289.

On to RRIRGRPPRLPRPRPRPIMWPRP, for which the “shrunken log2 fold change” value worked out at 0.39.

As to RRIRWRPPRLPRPRPRPLFHPRP, the “shrunken log2 fold change” value was -0.0933.

With RRIRYRPPRLPRPRPRPGAIPRP, the “shrunken log2 fold change” value was -0.284.

For RRIRRRPPRLPRPRPRPFLHPRP, the “shrunken log2 fold change” value stood at 0.0267.

With RRIRKRPPRLPRPRPRPEQWPRP, the “shrunken log2 fold change” value is -0.0362.

On to RRIRVRPPRLPRPRPRPDLCPRP, for which the “shrunken log2 fold change” value turned out to be 0.0475.

RRIRHRPPRLPRPRPRPINPPRP: the “shrunken log2 fold change” value was -0.0815.

In the case of RRIRWRPPRLPRPRPRPYLLPRP, the “shrunken log2 fold change” value was -0.508.

On to RRIRWRPPRLPRPRPRPSRDPRP, for which the “shrunken log2 fold change” value amounted to 0.479.

As to RRIRTRPPRLPRPRPRPTANPRP, the “shrunken log2 fold change” value was 0.0721.

As to RRIRCRPPRLPRPRPRPSMGPRP, the “shrunken log2 fold change” value is -0.169.

RRIRVRPPRLPRPRPRPIQVPRP: the “shrunken log2 fold change” value came to 0.0304.

As for RRIRYRPPRLPRPRPRPSCPPRP, the “shrunken log2 fold change” value is -0.851.

As to RRIRNRPPRLPRPRPRPAGQPRP, the “shrunken log2 fold change” value came to 0.0891.

In the case of RRIRLRPPRLPRPRPRPDNVPRP, the “shrunken log2 fold change” value came out at 0.0219.

With RRIRHRPPRLPRPRPRPMDFPRP, the “shrunken log2 fold change” value came to 3.65.

As to RRIRSRPPRLPRPRPRPEHVPRP, the “shrunken log2 fold change” value was -0.191.

Take RRIRWRPPRLPRPRPRPIYKPRP: the “shrunken log2 fold change” value was -0.596.

As to RRIRARPPRLPRPRPRPHADPRP, the “shrunken log2 fold change” value was 0.981.

Regarding RRIRQRPPRLPRPRPRPHQCPRP, the “shrunken log2 fold change” value was -0.401.

Consider RRIRYRPPRLPRPRPRPYWFPRP, for which the “shrunken log2 fold change” value is -0.142.

With RRIRARPPRLPRPRPRPKWLPRP, the “shrunken log2 fold change” value came to 0.234.

Turning to RRIRNRPPRLPRPRPRPNVRPRP, the “shrunken log2 fold change” value was -0.243.

For RRIRNRPPRLPRPRPRPIDLPRP, the “shrunken log2 fold change” value is -0.0431.

Take RRIRHRPPRLPRPRPRPIRMPRP: the “shrunken log2 fold change” value is -0.217.

On to RRIRDRPPRLPRPRPRPCAEPRP, for which the “shrunken log2 fold change” value was 0.508.

In the case of RRIRIRPPRLPRPRPRPQFEPRP, the “shrunken log2 fold change” value is -0.0601.

Regarding RRIRSRPPRLPRPRPRPSCRPRP, the “shrunken log2 fold change” value was -0.0379.

Consider RRIRVRPPRLPRPRPRPGRNPRP, for which the “shrunken log2 fold change” value is -0.00746.

Turning to RRIRNRPPRLPRPRPRPREAPRP, the “shrunken log2 fold change” value turned out to be 0.00436.

On to RRIRIRPPRLPRPRPRPYWPPRP, for which the “shrunken log2 fold change” value was -0.28.
